Patent publication US20060110356A1, “Ophthalmic drug delivery system using polymer micelle” (NANOCARRIER KABUSHIKI KAISHA, priority 2003, published 2006)

Assays:
[1] = tested on: choroidal neovascular (CNV) model; assay: Intraocular transfer of fluorescent-labelled PIC micelle in rat CNV model (fluorescence microscopy of frozen sections); type: in vivo, BN rat; conditions: intravenous, 400 μL of 5 mg/mL in physiological saline
Procedure: A diblock copolymer having polyethylene glycol (PEG) as a hydrophilic polymer chain, and polyaspartic acid (P(Asp)) as an anionic polymer chain within one molecule was dispersed in water, and mixed with FITC-labelled polylysine (FITC-P(Lys)) to prepare a core-shell type PIC micelle solution (5 mg/mL) having a core of a polylon complex (PIC) consisting of P(Asp) and FITC-P(Lys), and a shell of PEG.
After generally anesthetizing a BN rat by intramuscular administration of 1 mL/kg of a mixture of a 5% ketamine hydrochloride injection and a 2% xylazine hydrochloride injection (7:1), eye drops of a 0.5% tropicamide-0.5% phenylephrine hydrochloride ophthalmic solution were administered to render mydriasis. Then, photocoagulation was carried out with a semiconductor laser photocoagulator. Photocoagulation was carried out on six scattering positions per one eye in a posterior portion of the ocular fundus while focusing on retinal deep layer (coagulation conditions: spot size 75 μm, output 200 mW, coagulation time 0.05 sec) such that irradiation of large retinal vessels was avoided. […]
Following administration, the eyeball was removed after a predetermined time, and a frozen tissue section was prepared. Thereafter, leakage of the fluorescence to the choroidal neovascular site was qualitatively observed by a fluorescence microscope.

skin = conditions: rat, in vivo, iv
Procedure: As a comparative control, Photofrin was administered under the same condition.
Four hours after the administration, a xenon lamp was irradiated on the shaved part (wavelength: 377-700 nm, power density: 30 mW/cm^2, irradiation area: 4 cm^2).

| photosensitive erethism on the skin (skin) | Substance | toxicity (death of animal) [1] |
| --- | --- | --- |
|  | FITC-labelled polylysine [FITC-P(Lys)] | the animal died one hour after the administration due to its toxicity |
| photosensitive erethism was found | Photofrin |  |
